The values below come from the supplement of paper PMC12764529.

± gives the half width of the 95% confidence interval.

Data set [1] is described as follows: folding stability dG unfold from trypsin proteolysis; higher = more stable. Put shortly:
(§1)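 Bayesian fitting of sequencing counts gave K50 for each design. Unfolding free energy followed by setting this against a sequence-predicted unfolded-state K50 and a shared folded-state K50, either per protease or with trypsin and chymotrypsin combined. The designs, under 80 residues and lacking cysteine, were digested in a PA-tagged cDNA display format at 11 threefold-diluted protease concentrations and without protease, and only those with AlphaFold2 dimer inter-PAE above 15 were kept.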

Data set [2] can be described thus: folding stability dG unfold from chymotrypsin proteolysis; higher = more stable. Put shortly: as §1
Data set [3] is described as follows: folding stability dG unfold (combined trypsin and chymotrypsin); higher = more stable. Put shortly:
as §1

With “SAEKTLTIPITLENGATLTITVYEDRIEATLEVDGLTGTGYTLPDGTVVLNLRAPGNKPIASPVFTLDLSAG [r14_213_TrMRF]”, the “folding stability dG unfold” value in data set [1] was determined as 1.73 ± 0.058 kcal/mol; in data set [2], 2.48 ± 0.06 kcal/mol; in data set [3], 2.31 ± 0.12 kcal/mol.
In the case of “SAELEELLKKAEELAKKNNVEVEVEVKLELEPVKVTEYKLNKDGKPVEKKEEEELELRLEIKVKIRPKKSAG [r14_728_TrROS_Hall]”, the “folding stability dG unfold” value was 1.26 ± 0.2 kcal/mol in data set [1], 3.22 ± 0.2 kcal/mol in data set [2] and 2.58 ± 0.35 kcal/mol in data set [3].
In the same order, the values of “SAELKISKIDVSSLPDGSKKVTVNFSAPNFKVTITLDKSGNVSVEVSPEARKLPPEFFNLILNLAKELGSAG [r14_555_TrMRF]” are 3.64 ± 0.15 kcal/mol, 4.14 ± 0.1 kcal/mol and 3.96 ± 0.1 kcal/mol.
On the same counts, the results for “SAELLDALKKNGWTIRIPIKHPGNGETWPMPFRIEPDGDGWKISIPPPNGKPHPFKIEDIEIMPPEDLKSAG [r14_427_TrROS]” are 0.723 ± 0.11 kcal/mol, 0.406 ± 0.42 kcal/mol and 0.561 ± 0.2 kcal/mol.
On to “SAEMKIEKIEVKPLEEEPELVEITIKVKDPEKLKEALEKAGFTVEEVDEEEGKLTITMSREQLEKLLKASAG [r14_777_TrROS_Hall]”, for which the figures for the “folding stability dG unfold” value in data set [1], in data set [2] and in data set [3] were 1.85 ± 0.1 kcal/mol, 1.68 ± 0.14 kcal/mol and 1.91 ± 0.31 kcal/mol, respectively.
In the same order, the values of “SAEPTLAEATNDPATGTATANFPLENLPPDYRVLAVNLETGEVTEFPPDGEVTITAPEGPVLVKLFWKGSAG [r14_134_TrMRF]” are 0.608 ± 0.13 kcal/mol, -0.512 ± 0.55 kcal/mol and 0.213 ± 0.15 kcal/mol.
As to “SAETKAEVFRFGDVLVVVTEERVTTPDGSERPVYTVTLLVYDPSTGKWTPFSRPFSSKEDAAKALSSGVSAG [r14_500_TrMRF]”, the figures for the “folding stability dG unfold” value in data set [1], in data set [2] and in data set [3] were 1.52 ± 0.07 kcal/mol, 2.22 ± 0.083 kcal/mol and 1.98 ± 0.15 kcal/mol, respectively.
Consider “SAETRTLTIRIPAKDLTPEQIRALLRALLPEDATITEVRIERDEDGYITVTIVVTNPDGSKQEIRLVFPSAG [r14_30_TrROS_Hall]”, for which the “folding stability dG unfold” value turned out to be 2.527 ± 0.024 kcal/mol in data set [1], 2.64 ± 0.031 kcal/mol in data set [2] and 2.6 ± 0.085 kcal/mol in data set [3].
For “SAETVTITLPGATITVEKVDGKWIATVTKVEPGADKVTVEVTLTKVDEDGNTTTVTETVTIDAKTGKVLSAG [r14_724_TrROS_Hall]”, the entries for the “folding stability dG unfold” value in data set [1], in data set [2] and in data set [3] were 2.7 ± 0.32 kcal/mol, 2.92 ± 0.19 kcal/mol and 2.81 ± 0.23 kcal/mol, respectively.
On the same counts, the results for “SAETVVTPRRSTLPDGTRLEEDVVTLPDGTTVTPVRVVRRDPETGREVVEFWVRTTDPATGTTTTTPLPSAG [r14_324_JUSTAS]” are -0.198 ± 0.12 kcal/mol, 1.72 ± 0.059 kcal/mol and 1.23 ± 0.051 kcal/mol.
As to “SAEVEIEVVEKDGKLYLVIRVRFPPGLKPGDKVTLTLTLPNGAKVTITRDKDGTRYITIVVELKDLEKLSAG [r14_754_TrROS_Hall]”, the “folding stability dG unfold” value in data set [1] was determined as 3.94 ± 0.41 kcal/mol; in data set [2], 5.23 ± 0.13 kcal/mol; in data set [3] it was 4.69 ± 0.22 kcal/mol.
For the sequence “SAEVEVLPFEFELPNGLRVEVHLVRLPDGTVVAPVLLVEYDPVTGEPRLSRAVAVFDPSTGKVTVLPLDSAG [r14_324_TrMRF]”, the “folding stability dG unfold” value in data set [1] stood at 3.01 ± 0.047 kcal/mol; in data set [2] it was 2.993 ± 0.017 kcal/mol; in data set [3] it was 2.97 ± 0.042 kcal/mol.
In the same order, the values of “SAEVYEFGNAVVVVTTSPDGTVRVYVFNPETGEVTEIEIHPDTPGEYKVRPLGNGEVKEATVPVSDILPVSA [r9_1071_TrMRF]” are 0.851 ± 0.051 kcal/mol, 1.42 ± 0.2 kcal/mol and 1.19 ± 0.23 kcal/mol.
Turning to “SAFNIEIEEVDPNEIYIKIDATPEQLEEIAEDIMKNFPGYKVKWEWDDEQGKIWFRIRPVPPPPPEDQNSAG [r14_600_TrROS]”, the “folding stability dG unfold” value in data set [1] was 1.14 ± 0.1 kcal/mol; in data set [2], 1.97 ± 0.13 kcal/mol; in data set [3], 1.96 ± 0.29 kcal/mol.
In the same order, the values of “SAFRIKIELWNPNGKPQEHTFPVPPGDPDKLVEEIEDEVQKHHPNDGYKMRAEILEVTPNGWVTIRIWYSAG [r14_622_TrROS]” are 2.66 ± 0.077 kcal/mol, 3.01 ± 0.11 kcal/mol and 2.79 ± 0.18 kcal/mol.
In the same order, the values of “SAGAAPGEPVVLVLPDGTVIPVIPRPDGSATLDAVAPSADGTYTVTASLPATGTTVTLELSAPPSFVAASAG [r5_394_TrMRF]” are 1.43 ± 0.038 kcal/mol, 0.824 ± 0.052 kcal/mol and 1.16 ± 0.043 kcal/mol.
In the case of “SAGAKEITAEELAEIVREFAAALPPDVKEPVTVEITVPLEDGRVLVFKVTVERSPDGVKATVEVSPGASAGG [r19_220_TrMRF]”, the results for the “folding stability dG unfold” value in data set [1], in data set [2] and in data set [3] were 2.4 ± 0.13 kcal/mol, 3.43 ± 0.037 kcal/mol and 3.21 ± 0.18 kcal/mol, respectively.
With “SAGAKVTVEPVKVEPLPNGEVKVTAKVTIYDPNTTKPTEIEVTGTYKLHPNGKPVKPETIVAEAIKKAASAG [r5_604_TrMRF]”, the results for the “folding stability dG unfold” value in data set [1], in data set [2] and in data set [3] were 0.426 ± 0.038 kcal/mol, 0.337 ± 0.17 kcal/mol and 0.459 ± 0.14 kcal/mol, respectively.
As for “SAGALEETTLPLPRPESLPDVSPEVLAALILALLSAVGVTVEVLSSDPANPVTAMVATRDGRVVLRALASAG [r5_80_JUSTAS]”, the “folding stability dG unfold” value came out at 1.58 ± 0.049 kcal/mol in data set [1], 2.34 ± 0.051 kcal/mol in data set [2] and 2.06 ± 0.068 kcal/mol in data set [3].
Regarding “SAGAPLEVPGPLVTVTEEEVPGKPLVFIPTPDGLIVVDLVTGKAERYPLYSEEPIVLDVPPGVVIELPSAGG [r19_138_JUSTAS]”, the figures for the “folding stability dG unfold” value in data set [1], in data set [2] and in data set [3] were 1.02 ± 0.073 kcal/mol, 0.398 ± 0.13 kcal/mol and 0.819 ± 0.077 kcal/mol, respectively.
In the same order, the values of “SAGASVEQWSLTSVEVTELPGPEVVVPMTARLPDGTEVVMSGVVGPGSVTLTSPDGSTSTLAIPPALASAGG [r19_84_JUSTAS]” are 1.2 ± 0.023 kcal/mol, 0.734 ± 0.045 kcal/mol and 1.03 ± 0.04 kcal/mol.
In the same order, the values of “SAGATFKPGQTVTVVEVKVEVSVSLSRNADGSVSLSVSVRVEVKTTTVTLPEPATVTLPPGVKSLEDLLSAG [r5_770_TrROS_Hall]” are 2.37 ± 0.097 kcal/mol, 3.73 ± 0.096 kcal/mol and 3.27 ± 0.089 kcal/mol.
With “SAGAVEKLRKELEELGYEVELEEVEDEETGKTYFILRIRNPDGEIYEIKVDKKTGEIVEIFKVDNLEELSAG [r5_938_TrROS_Hall]”, the “folding stability dG unfold” value in data set [1] came to 3.83 ± 0.17 kcal/mol; in data set [2], 4.17 ± 0.064 kcal/mol; in data set [3], 4.14 ± 0.19 kcal/mol.
On the same counts, the results for “SAGDAIADLLKEAGFEIDSVDSIEPTDGSYVIGFKFEFPNGWYMEITIWIDPNNPDKIEIDIKMQPPDESAG [r5_683_TrROS]” are 2.6 ± 0.28 kcal/mol, 4.43 ± 0.33 kcal/mol and 4.06 ± 0.45 kcal/mol.
In the same order, the values of “SAGDALKDLAPDVEITPSSFPFAFPPSRPVLAASIVAHPDNTITVFLTEVHPDGGARVLVYTLHLSDKSAGG [r19_125_TrMRF]” are 2.78 ± 0.12 kcal/mol, 3.2 ± 0.051 kcal/mol and 3.05 ± 0.14 kcal/mol.
Take “SAGDALKEAAKPGEEVTVRLRLTLTFTTETFTDDDGRERTVETVTVTVELEARVVAVDPETGELVIELRSAG [r5_5_TrROS_Hall]”: the “folding stability dG unfold” value was 2.56 ± 0.12 kcal/mol in data set [1], 4.19 ± 0.14 kcal/mol in data set [2] and 3.52 ± 0.18 kcal/mol in data set [3].
On the same counts, the results for “SAGDEIEEKVKEILEKLNPDEPVVIKRTKDGRILAENPKTGKFIIFDISPDGTIKIVKVVPAEEAKKLGSAG [r5_852_TrMRF]” are 1.47 ± 0.12 kcal/mol, 2.52 ± 0.071 kcal/mol and 2.18 ± 0.19 kcal/mol.
In the case of “SAGDGITVNPEKVTLTLDITLPDGTVLRVTVTLTPDGVEVTVEPVPVPPLPGATSPEEAEELLKQALASSAG [r5_272_TrMRF]”, the “folding stability dG unfold” value in data set [1] came out at 1.99 ± 0.09 kcal/mol; in data set [2], 2.37 ± 0.086 kcal/mol; in data set [3], 2.34 ± 0.083 kcal/mol.
In the case of “SAGDKGRYHFPFTVTMPPGKPPSQIEDALGKYGWDDVDINREPPPNGETKYTINVHMPKEDLPKLLEAFSAG [r5_376_TrROS]”, the “folding stability dG unfold” value in data set [1] was found to be 0.895 ± 0.039 kcal/mol; in data set [2], 0.933 ± 0.26 kcal/mol; in data set [3] it was 0.963 ± 0.12 kcal/mol.
On the same counts, the results for “SAGDKIEIKFNIPMPEGPIRIMVWDNGKREEKDIPPGEEVTIKIDLPPGDDYRIAIYYPDGNMHEFPINSAG [r5_187_TrROS]” are 1.65 ± 0.17 kcal/mol, 3.31 ± 0.14 kcal/mol and 2.47 ± 0.25 kcal/mol.
In the case of “SAGDNMYKYDYENPWYGIKIEVWVSPNGQIVSIKVKIEKVPPVPPKPPIDPEDMVPDPDGKYRSPNDLDSAG [r5_685_TrROS]”, the figures for the “folding stability dG unfold” value in data set [1], in data set [2] and in data set [3] were 1.4 ± 0.098 kcal/mol, 2.26 ± 0.026 kcal/mol and 1.95 ± 0.099 kcal/mol, respectively.
For the sequence “SAGDVVEIEITYWVPPDEMTVDEFVDHIMSMLPGVKVKSIEIDEIHPYPDGWYEVTVNYTIEVPPGQEISAG [r5_682_TrROS]”, the “folding stability dG unfold” value in data set [1] is 2.53 ± 0.39 kcal/mol; in data set [2], 2.82 ± 0.12 kcal/mol; in data set [3], 2.81 ± 0.16 kcal/mol.
On the same counts, the results for “SAGDWYIVIKITIYHPNKREREFPIVFDWKDGKIEIAPEFLQNIAEELGLPPNMKIEIEIVEIMPPNDSAGG [r19_287_TrROS]” are 1.75 ± 0.12 kcal/mol, 3.22 ± 0.099 kcal/mol and 2.43 ± 0.55 kcal/mol.
For the sequence “SAGEEIAKRLAEELKEKGYEVEVKVTVEYDEETGEVTITIEIKVKPKPAPPVKIEKKLEGMSEEEKKALSAG [r5_413_TrROS_Hall]”, the “folding stability dG unfold” value in data set [1] came out at 0.113 ± 0.12 kcal/mol; in data set [2], 0.137 ± 0.084 kcal/mol; in data set [3], 0.187 ± 0.29 kcal/mol.
In the same order, the values of “SAGEEPPEVTIKVVEKDGKLVIEVEYNGKTLTITLEDGEKIEIKFPEGMSEEELLEEAKRLAKELAEKSAGG [r19_170_TrROS_Hall]” are 3.05 ± 0.35 kcal/mol, 1.9 ± 0.25 kcal/mol and 2.63 ± 0.39 kcal/mol.
In the same order, the values of “SAGEIKITVEEVEDGELLVTVEITAESKEEALKALEDLIRELFGEDVEIVSVEFDEETKRIRVTIRIKPSAG [r5_810_TrROS_Hall]” are 4.25 ± 0.21 kcal/mol, 3.51 ± 0.29 kcal/mol and 4.35 ± 0.35 kcal/mol.
